In IntAct's records for PubMed 19490898:

B1: Ras-related protein Rab-9A (Canis familiaris (dog)), P24408 (parent)
chain: MAGKSSLFKVILLGDGGVGKSSLMNRYVTNKFDTQLFHTIGVEFLNKDLEVDGHFVTMQIWDTAGQERFRSLRTPFYRGSDCCLLTFSVDDSQSFQNLSNWKKEFIYYADVKEPESFPFVILGNKIDISERQVSTEEAQAWCRDNGDYPYFETSAKDATNVAAAFEEAVRRVLATEDRSDHLIQTDTVSLHRKPKPSSSCC

Variants of: B1
Conditions: with rhbt3_human RHOBTB3, O94955
rhbt3_human RHOBTB3, O94955, sequence (O94955 whole entry): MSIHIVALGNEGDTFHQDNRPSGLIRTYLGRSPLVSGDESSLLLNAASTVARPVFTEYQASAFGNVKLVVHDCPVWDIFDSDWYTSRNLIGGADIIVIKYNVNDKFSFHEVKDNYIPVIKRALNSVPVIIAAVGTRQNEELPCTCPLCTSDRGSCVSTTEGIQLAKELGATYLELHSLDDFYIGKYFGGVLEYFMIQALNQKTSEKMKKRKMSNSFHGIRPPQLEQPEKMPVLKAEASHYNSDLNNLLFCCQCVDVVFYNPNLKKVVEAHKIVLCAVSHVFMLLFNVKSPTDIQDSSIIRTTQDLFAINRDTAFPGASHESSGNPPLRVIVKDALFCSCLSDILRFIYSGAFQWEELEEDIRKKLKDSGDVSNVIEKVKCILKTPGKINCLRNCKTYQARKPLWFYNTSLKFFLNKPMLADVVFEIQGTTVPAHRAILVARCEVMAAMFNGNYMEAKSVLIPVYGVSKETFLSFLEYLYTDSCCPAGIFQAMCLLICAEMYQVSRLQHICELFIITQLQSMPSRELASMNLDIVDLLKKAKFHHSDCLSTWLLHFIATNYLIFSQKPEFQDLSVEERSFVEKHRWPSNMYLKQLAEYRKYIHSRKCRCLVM

Row | effect of a mutation on the interaction | Variant
1 | decreasing interaction | MAGKSSLFKVILLGDGGVGKNSLMNRYVTNKFDTQLFHTIGVEFLNKDLEVDGHFVTMQIWDTAGQERFRSLRTPFYRGSDCCLLTFSVDDSQSFQNLSNWKKEFIYYADVKEPESFPFVILGNKIDISERQVSTEEAQAWCRDNGDYPYFETSAKDATNVAAAFEEAVRRVLATEDRSDHLIQTDTVSLHRKPKPSSSCC [S21N]
